{
  "source": "paper PMC4282956",
  "experiment_in_all_cases": "SPR",
  "key": {"[1]": {"molecular_target": "HLA-B*08:01.N80I.R82L.G83R/FLR (human | not stated | EBV)"}, "[2]": {"molecular_target": "HLA-B*08:01.R82L/FLR (human | not stated | EBV)"}, "[3]": {"molecular_target": "HLA-B*08:01.N80I.R82L.G83R/FLR (human | not stated | EBV)", "remark": "listed apart in the source"}},
  "note": "Where two headings read alike, the source gives them in different places.",
  "data": [
    {"substance": "Soluble KIR3DL1*001 (from UniProt P43629 22-340) (receptor)", "values": [
      {"measurement": "Kd", "setting": "[1]", "value": 41.9, "unit": "µM"},
      {"measurement": "Kd", "setting": "[2]", "value": "> 300", "unit": "µM"},
      {"measurement": "Kd", "setting": "[3]", "value": 40.1, "unit": "µM"}
    ]}
  ]
}
